Biological target: the molecule itself
Assay: cross-linking; glutaraldehyde cross-linking of Mtb LexA with or without 3-nPBA (protein to inhibitor 1:100); stopped with 25 mM DTT; 12% SDS-PAGE

B1: Mycobacterium tuberculosis LexA (natural protein)
chain: MNDSNDTSVAGGAAGADSRVLSADSALTERQRTILDVIRASVTSRGYPPSIREIGDAVGLTSTSSVAHQLRTLERKGYLRRDPNRPRAVNVRGADDAALPPVTEVAGSDALPEPTFVPVLGRIAAGGPILAEEAVEDVFPLPRELVGEGTLFLLKVIGDSMVEAAICDGDWVVVRQQNVADNGDIVAAMIDGEATVKTFKRAGGQVWLMPHNPAFDPIPGNDATVLGKVVTVIRKV
notes: also called Mtb LexA; WT Mtb LexA
Q: Does B1 bind?
A: binds
